# Reference: PMC5456053
# B1: SecA N609 (SecA 1-609) (domain or fragment)
# chain: MLIKLLTKVFGSRNDRTLRRMRKVVNIINAMEPEMEKLSDEELKGKTAEFRARLEKGEVLENLIPEAFAVVREASKRVFGMRHFDVQLLGGMVLNERCIAEMRTGEGKTLTATLPAYLNALTGKGVHVVTVNDYLAQRDAENNRPLFEFLGLTVGINLPGMPAPAKREAYAADITYGTNNEYGFDYLRDNMAFSPEERVQRKLHYALVDEVDSILIDEARTPLIISGPAEDSSEMYKRVNKIIPHLIRQEKEDSETFQGEGHFSVDEKSRQVNLTERGLVLIEELLVKEGIMDEGESLYSPANIMLMHHVTAALRAHALFTRDVDYIVKDGEVIIVDEHTGRTMQGRRWSDGLHQAVEAKEGVQIQNENQTLASITFQNYFRLYEKLAGMTGTADTEAFEFSSIYKLDTVVVPTNRPMIRKDLPDLVYMTEAEKIQAIIEDIKERTAKGQPVLVGTISIEKSELVSNELTKAGIKHNVLNAKFHANEAAIVAQAGYPAAVTIATNMAGRGTDIVLGGSWQAEVAALENPTAEQIEKIKADWQVRHDAVLEAGGLHIIGTERHESRRIDNQLRGRSGRQGDAGSSRFYLSMEDALMRIFASDRVSGMMRK
# B2: SecA N831 (SecA 1-831) (domain or fragment)
# chain: MLIKLLTKVFGSRNDRTLRRMRKVVNIINAMEPEMEKLSDEELKGKTAEFRARLEKGEVLENLIPEAFAVVREASKRVFGMRHFDVQLLGGMVLNERCIAEMRTGEGKTLTATLPAYLNALTGKGVHVVTVNDYLAQRDAENNRPLFEFLGLTVGINLPGMPAPAKREAYAADITYGTNNEYGFDYLRDNMAFSPEERVQRKLHYALVDEVDSILIDEARTPLIISGPAEDSSEMYKRVNKIIPHLIRQEKEDSETFQGEGHFSVDEKSRQVNLTERGLVLIEELLVKEGIMDEGESLYSPANIMLMHHVTAALRAHALFTRDVDYIVKDGEVIIVDEHTGRTMQGRRWSDGLHQAVEAKEGVQIQNENQTLASITFQNYFRLYEKLAGMTGTADTEAFEFSSIYKLDTVVVPTNRPMIRKDLPDLVYMTEAEKIQAIIEDIKERTAKGQPVLVGTISIEKSELVSNELTKAGIKHNVLNAKFHANEAAIVAQAGYPAAVTIATNMAGRGTDIVLGGSWQAEVAALENPTAEQIEKIKADWQVRHDAVLEAGGLHIIGTERHESRRIDNQLRGRSGRQGDAGSSRFYLSMEDALMRIFASDRVSGMMRKLGMKPGEAIEHPWVTKAIANAQRKVESRNFDIRKQLLEYDDVANDQRRAIYSQRNELLDVSDVSETINSIREDVFKATIDAYIPPQSLEEMWDIPGLQERLKNDFDLDLPIAEWLDKEPELHEETLRERILAQSIEVYQRKEEVVGAEMMRHFEKGVMLQTLDSLWKEHLAAMDYLRQGIHLRGYAQKDPKQEYKRESFSMFAAMLESLKYEVISTLSKVQV
# B3: SecA N619 (SecA 1-619) (domain or fragment)
# chain: MLIKLLTKVFGSRNDRTLRRMRKVVNIINAMEPEMEKLSDEELKGKTAEFRARLEKGEVLENLIPEAFAVVREASKRVFGMRHFDVQLLGGMVLNERCIAEMRTGEGKTLTATLPAYLNALTGKGVHVVTVNDYLAQRDAENNRPLFEFLGLTVGINLPGMPAPAKREAYAADITYGTNNEYGFDYLRDNMAFSPEERVQRKLHYALVDEVDSILIDEARTPLIISGPAEDSSEMYKRVNKIIPHLIRQEKEDSETFQGEGHFSVDEKSRQVNLTERGLVLIEELLVKEGIMDEGESLYSPANIMLMHHVTAALRAHALFTRDVDYIVKDGEVIIVDEHTGRTMQGRRWSDGLHQAVEAKEGVQIQNENQTLASITFQNYFRLYEKLAGMTGTADTEAFEFSSIYKLDTVVVPTNRPMIRKDLPDLVYMTEAEKIQAIIEDIKERTAKGQPVLVGTISIEKSELVSNELTKAGIKHNVLNAKFHANEAAIVAQAGYPAAVTIATNMAGRGTDIVLGGSWQAEVAALENPTAEQIEKIKADWQVRHDAVLEAGGLHIIGTERHESRRIDNQLRGRSGRQGDAGSSRFYLSMEDALMRIFASDRVSGMMRKLGMKPGEAIE
# B4: SecA N629* (SecA 1-629, N629D) (domain or fragment)
# chain: MLIKLLTKVFGSRNDRTLRRMRKVVNIINAMEPEMEKLSDEELKGKTAEFRARLEKGEVLENLIPEAFAVVREASKRVFGMRHFDVQLLGGMVLNERCIAEMRTGEGKTLTATLPAYLNALTGKGVHVVTVNDYLAQRDAENNRPLFEFLGLTVGINLPGMPAPAKREAYAADITYGTNNEYGFDYLRDNMAFSPEERVQRKLHYALVDEVDSILIDEARTPLIISGPAEDSSEMYKRVNKIIPHLIRQEKEDSETFQGEGHFSVDEKSRQVNLTERGLVLIEELLVKEGIMDEGESLYSPANIMLMHHVTAALRAHALFTRDVDYIVKDGEVIIVDEHTGRTMQGRRWSDGLHQAVEAKEGVQIQNENQTLASITFQNYFRLYEKLAGMTGTADTEAFEFSSIYKLDTVVVPTNRPMIRKDLPDLVYMTEAEKIQAIIEDIKERTAKGQPVLVGTISIEKSELVSNELTKAGIKHNVLNAKFHANEAAIVAQAGYPAAVTIATNMAGRGTDIVLGGSWQAEVAALENPTAEQIEKIKADWQVRHDAVLEAGGLHIIGTERHESRRIDNQLRGRSGRQGDAGSSRFYLSMEDALMRIFASDRVSGMMRKLGMKPGEAIEHPWVTKAIAD
# B5: SecA N649 (SecA 1-649) (domain or fragment)
# chain: MLIKLLTKVFGSRNDRTLRRMRKVVNIINAMEPEMEKLSDEELKGKTAEFRARLEKGEVLENLIPEAFAVVREASKRVFGMRHFDVQLLGGMVLNERCIAEMRTGEGKTLTATLPAYLNALTGKGVHVVTVNDYLAQRDAENNRPLFEFLGLTVGINLPGMPAPAKREAYAADITYGTNNEYGFDYLRDNMAFSPEERVQRKLHYALVDEVDSILIDEARTPLIISGPAEDSSEMYKRVNKIIPHLIRQEKEDSETFQGEGHFSVDEKSRQVNLTERGLVLIEELLVKEGIMDEGESLYSPANIMLMHHVTAALRAHALFTRDVDYIVKDGEVIIVDEHTGRTMQGRRWSDGLHQAVEAKEGVQIQNENQTLASITFQNYFRLYEKLAGMTGTADTEAFEFSSIYKLDTVVVPTNRPMIRKDLPDLVYMTEAEKIQAIIEDIKERTAKGQPVLVGTISIEKSELVSNELTKAGIKHNVLNAKFHANEAAIVAQAGYPAAVTIATNMAGRGTDIVLGGSWQAEVAALENPTAEQIEKIKADWQVRHDAVLEAGGLHIIGTERHESRRIDNQLRGRSGRQGDAGSSRFYLSMEDALMRIFASDRVSGMMRKLGMKPGEAIEHPWVTKAIANAQRKVESRNFDIRKQLLEYD
# B6: SecA N798* (SecA 1-798, D798R) (domain or fragment)
# chain: MLIKLLTKVFGSRNDRTLRRMRKVVNIINAMEPEMEKLSDEELKGKTAEFRARLEKGEVLENLIPEAFAVVREASKRVFGMRHFDVQLLGGMVLNERCIAEMRTGEGKTLTATLPAYLNALTGKGVHVVTVNDYLAQRDAENNRPLFEFLGLTVGINLPGMPAPAKREAYAADITYGTNNEYGFDYLRDNMAFSPEERVQRKLHYALVDEVDSILIDEARTPLIISGPAEDSSEMYKRVNKIIPHLIRQEKEDSETFQGEGHFSVDEKSRQVNLTERGLVLIEELLVKEGIMDEGESLYSPANIMLMHHVTAALRAHALFTRDVDYIVKDGEVIIVDEHTGRTMQGRRWSDGLHQAVEAKEGVQIQNENQTLASITFQNYFRLYEKLAGMTGTADTEAFEFSSIYKLDTVVVPTNRPMIRKDLPDLVYMTEAEKIQAIIEDIKERTAKGQPVLVGTISIEKSELVSNELTKAGIKHNVLNAKFHANEAAIVAQAGYPAAVTIATNMAGRGTDIVLGGSWQAEVAALENPTAEQIEKIKADWQVRHDAVLEAGGLHIIGTERHESRRIDNQLRGRSGRQGDAGSSRFYLSMEDALMRIFASDRVSGMMRKLGMKPGEAIEHPWVTKAIANAQRKVESRNFDIRKQLLEYDDVANDQRRAIYSQRNELLDVSDVSETINSIREDVFKATIDAYIPPQSLEEMWDIPGLQERLKNDFDLDLPIAEWLDKEPELHEETLRERILAQSIEVYQRKEEVVGAEMMRHFEKGVMLQTLDSLWKEHLAAMDYLRQGIHLRGYAQKR
# B7: SecA N828 (SecA 1-828) (domain or fragment)
# chain: MLIKLLTKVFGSRNDRTLRRMRKVVNIINAMEPEMEKLSDEELKGKTAEFRARLEKGEVLENLIPEAFAVVREASKRVFGMRHFDVQLLGGMVLNERCIAEMRTGEGKTLTATLPAYLNALTGKGVHVVTVNDYLAQRDAENNRPLFEFLGLTVGINLPGMPAPAKREAYAADITYGTNNEYGFDYLRDNMAFSPEERVQRKLHYALVDEVDSILIDEARTPLIISGPAEDSSEMYKRVNKIIPHLIRQEKEDSETFQGEGHFSVDEKSRQVNLTERGLVLIEELLVKEGIMDEGESLYSPANIMLMHHVTAALRAHALFTRDVDYIVKDGEVIIVDEHTGRTMQGRRWSDGLHQAVEAKEGVQIQNENQTLASITFQNYFRLYEKLAGMTGTADTEAFEFSSIYKLDTVVVPTNRPMIRKDLPDLVYMTEAEKIQAIIEDIKERTAKGQPVLVGTISIEKSELVSNELTKAGIKHNVLNAKFHANEAAIVAQAGYPAAVTIATNMAGRGTDIVLGGSWQAEVAALENPTAEQIEKIKADWQVRHDAVLEAGGLHIIGTERHESRRIDNQLRGRSGRQGDAGSSRFYLSMEDALMRIFASDRVSGMMRKLGMKPGEAIEHPWVTKAIANAQRKVESRNFDIRKQLLEYDDVANDQRRAIYSQRNELLDVSDVSETINSIREDVFKATIDAYIPPQSLEEMWDIPGLQERLKNDFDLDLPIAEWLDKEPELHEETLRERILAQSIEVYQRKEEVVGAEMMRHFEKGVMLQTLDSLWKEHLAAMDYLRQGIHLRGYAQKDPKQEYKRESFSMFAAMLESLKYEVISTLSK
# Target: SecYEG-SecDF•YajC (E. coli) (UniProt P0AGA2)
Molecule,"% pOmpA Translocation, +YEG: in vitro translocation of pOmpA into liposomes with SecYEG-SecDF•YajC (% pOmpA Translocation)","Channel Activity, μA, +YEG: ion current in Xenopus oocytes injected with SecA, liposomes, SecYEG-SecDF•YajC, pOmpA, ATP-Mg [μA]","Channel Activity, μA, +YEG: ion current in Xenopus oocytes injected with the fragment, liposomes, SecYEG-SecDF•YajC, pOmpA, ATP-Mg [μA]"
SecA N772 (SecA 1-772) (from UniProt P10408 1-772) (domain or fragment),0,,
E. coli SecA (from UniProt P10408 1-901) (natural protein),97,7,
B1,0,,0
B2,71.2,,5.8
B3,0,,0
B4,,,0.4
B5,0,,5.8
B6,0,,
B7,7.6,,
